Measurements from the Immune Epitope Database (IEDB).

Legend:
[1] = target: HLA-A*11:01; test: IEDB peptide-MHC binding, purified MHC/direct/fluorescence; filed as Kd, often an IC50 or EC50 that approximates it; ≥ and ≤ were set here for values at or beyond the usual limits of such assays; details: source organism: Salmonella enterica subsp. enterica serovar Typhi
[2] = target: HLA-A*69:01; test: as above
[3] = target: HLA-B*07:02; test: as above
[4] = target: HLA-A*30:01; test: IEDB peptide-MHC binding, purified MHC/competitive/radioactivity; filed as Kd, often an IC50 or EC50 that approximates it; ≥ and ≤ were set here for values at or beyond the usual limits of such assays
[5] = target: HLA-A*02:01; test: IEDB peptide-MHC binding, purified MHC/competitive/fluorescence; filed as Kd, often an IC50 or EC50 that approximates it; ≥ and ≤ were set here for values at or beyond the usual limits of such assays
[6] = target: HLA-A*02:01; test: IEDB peptide-MHC binding, purified MHC/competitive/fluorescence; ≥ and ≤ were set here for values at or beyond the usual limits of such assays
[7] = target: HLA-A*30:02; test: IEDB peptide-MHC binding, purified MHC/competitive/radioactivity; filed as Kd, often an IC50 or EC50 that approximates it; ≥ and ≤ were set here for values at or beyond the usual limits of such assays
[8] = target: HLA-B*58:01; test: IEDB peptide-MHC binding, purified MHC/direct/fluorescence; filed as Kd, often an IC50 or EC50 that approximates it; ≥ and ≤ were set here for values at or beyond the usual limits of such assays
[9] = target: HLA-A*02:01; test: as above
[10] = target: HLA-A*68:01; test: IEDB peptide-MHC binding, purified MHC/competitive/radioactivity; filed as Kd, often an IC50 or EC50 that approximates it; ≥ and ≤ were set here for values at or beyond the usual limits of such assays
[11] = target: HLA-A*33:01; test: as above
[12] = target: HLA-A*31:01; test: as above
[13] = target: HLA-A*03:01; test: as above
[14] = target: HLA-A*24:02; test: as above
[15] = target: HLA-A*11:01; test: as above
[16] = target: HLA-A*03:01; test: IEDB peptide-MHC binding, purified MHC/direct/fluorescence; filed as Kd, often an IC50 or EC50 that approximates it; ≥ and ≤ were set here for values at or beyond the usual limits of such assays; details: source organism: Francisella tularensis subsp. holarctica OSU18
[17] = target: HLA-B*15:01; test: as above; details: source organism: SARS-CoV1
[18] = target: HLA-B*40:01; test: as above; details: source organism: Influenza A virus (A/Denver/1957(H1N1))
[19] = target: HLA-A*02:02; test: IEDB peptide-MHC binding, purified MHC/competitive/radioactivity; filed as Kd, often an IC50 or EC50 that approximates it; ≥ and ≤ were set here for values at or beyond the usual limits of such assays
[20] = target: HLA-A*02:06; test: as above
[21] = target: HLA-A*02:03; test: as above
[22] = source organism: Vaccinia virus WR
[23] = source organism: Dengue virus 1 Singapore/S275/1990
[24] = source organism: Sudan ebolavirus
[25] = source organism: Dengue virus 2 Peru/IQT2913/1996
[26] = source organism: Entamoeba histolytica HM-1:IMSS
[27] = source organism: Dengue virus 3 Martinique/1243/1999
[28] = source organism: Zaire ebolavirus
[29] = source organism: Lymphocytic choriomeningitis virus (strain Armstrong)
[30] = source organism: Listeria monocytogenes
[31] = source organism: Vaccinia virus Copenhagen
[32] = source organism: Dengue virus 2 Jamaica/1409/1983
[33] = source organism: Dengue virus 4 Philippines/H241/1956
[34] = source organism: SARS coronavirus Tor2
[35] = source organism: Orthohantavirus hantanense

With AAGLPAIFV as the sequence, how does the Kd [1] read?
The Kd was 3860 nM.

And the Kd ([2]; source organism: Salmonella enterica subsp. enterica serovar Typhi)?
Its Kd is 1070 nM.

How did the Kd ([3]; source organism: Homo sapiens) turn out when APRALLLLL was run?
The Kd was 2100 nM.

Which Kd [4, 22] does the source give for ASKFVYVSV here?
Its Kd is 3.09 nM.

Which Kd ([2]; source organism: Haemophilus influenzae) does the source give for ATHKAPQPA here?
Its Kd is 3820 nM.

With AVKSEHTGK as the sequence, how does the Kd [4, 23] read?
Its Kd is 64.3 nM.

For CLMTYSHHA, which Kd ([5]; source organism: Escherichia coli F11) is on record?
Its Kd is 0.9 nM.

How did the IC50 [6, 24] turn out when CLPPPPDGV was run?
Its IC50 is 1490 nM.

For DKKGKVVGLY, which Kd [7, 25] is on record?
Its Kd is 2.56 nM.

For DLVHFASPL, which IC50 ([6]; source organism: Hepatitis B virus) is on record?
The IC50 was at least 366000 nM.

Which Kd ([3]; source organism: Homo sapiens) does the source give for DPSGAYFAW here?
The Kd was 17600 nM.

And the Kd ([8]; source organism: Homo sapiens)?
The Kd was 1570 nM.

Which results are given for EINPFYQDV?
Kd [9, 26]: 19500 nM; Kd [2, 26]: 7.6 nM

Which results are given for ESRTIRVLK?
Kd [4, 27]: 8.81 nM; Kd [10, 27]: 237 nM

How did the IC50 [6, 24] turn out when EVTEIDQLV was run?
Its IC50 is at least 86100 nM.

How did the IC50 [6, 28] turn out when FKAALSSLA was run?
Its IC50 is at least 109000 nM.

FLHGGDFGV was tested. Which Kd ([2]; source organism: Mycobacterium tuberculosis) did it give?
The Kd was 690 nM.

Which IC50 [6, 28] does the source give for FLIKFLLIH here?
The IC50 was at least 296000 nM.

Which Kd ([5]; source organism: Human alphaherpesvirus 1 strain 17) does the source give for FLTCTDRSV here?
Its Kd is 83 nM.

Which Kd ([9]; source organism: Francisella tularensis subsp. tularensis) does the source give for FLYGWLFIL here?
The Kd was 102 nM.

How did the Kd [11, 29] turn out when FTNDSIISH was run?
Its Kd is 342 nM.

And the Kd [4, 29]?
The Kd was at least 45500 nM.

What about the Kd [12, 29] of the same sequence?
Its Kd is 1990 nM.

And the Kd [13, 29]?
The Kd was 303 nM.

What about the Kd [10, 29] of the same sequence?
Its Kd is 81.9 nM.

GLYEWISEQ was tested. Which Kd [9, 30] did it give?
Its Kd is 177 nM.

And the Kd [2, 30]?
The Kd was at least 20000 nM.

With GNLSPETLV as the sequence, how does the IC50 ([6]; source organism: Vaccinia virus) read?
The IC50 was at least 106000 nM.

Which IC50 [6, 24] does the source give for GRLIWTLDA here?
Its IC50 is at least 593000 nM.

GSRKSSSIL was tested. Which Kd [4, 31] did it give?
The Kd was 1.58 nM.

Which Kd [7, 32] does the source give for GYSQIGAGVY here?
The Kd was 127 nM.

For HIPEGETTL, which IC50 [6, 24] is on record?
Its IC50 is 56200 nM.

How did the Kd [4, 22] turn out when HVSISSCNG was run?
The Kd was 502 nM.

IDFLLRRWG was tested. Which IC50 [6, 24] did it give?
Its IC50 is 26200 nM.

For INRFTMRHK, which Kd [4, 25] is on record?
Its Kd is 1110 nM.

For KAKRGTAQI, which Kd [4, 23] is on record?
The Kd was 289 nM.

KAKWLTPFE was tested. Which Kd [4, 22] did it give?
The Kd was 667 nM.

KFRPLMIFM was tested. Which Kd [4, 22] did it give?
Its Kd is 1.8 nM.

With KHMIAGVLF as the sequence, how does the Kd ([14]; source organism: Dengue virus 3 Singapore/8120/1995) read?
The Kd was 683 nM.

With KIKAGPRYV as the sequence, how does the Kd [4, 22] read?
The Kd was 6.93 nM.

With KIKLILANK as the sequence, how does the Kd [15, 22] read?
Its Kd is 146 nM.

And the Kd [11, 22]?
Its Kd is at least 25600 nM.

What about the Kd [4, 22] of the same sequence?
Its Kd is 109 nM.

What about the Kd [12, 22] of the same sequence?
Its Kd is 1.46 nM.

And the Kd [13, 22]?
Its Kd is 21.6 nM.

What about the Kd [10, 22] of the same sequence?
The Kd was at least 28300 nM.

What does the source list for KILAKAIFK?
Kd [15, 33]: 79.3 nM; Kd [4, 33]: 292 nM; Kd [13, 33]: 11.9 nM

With KMLEASTIY as the sequence, how does the Kd [16] read?
The Kd was 190 nM.

For KMQRMLLEK, which Kd [17] is on record?
Its Kd is at least 40300 nM.

And the Kd [11, 34]?
Its Kd is 13700 nM.

And the Kd [12, 34]?
The Kd was 19 nM.

What about the Kd [10, 34] of the same sequence?
The Kd was 1380 nM.

KQLEWKWGI was tested. Which Kd [9, 26] did it give?
The Kd was 0.7 nM.

And the Kd [2, 26]?
Its Kd is 23.2 nM.

Which Kd ([8]; source organism: Influenza A virus (A/Yilan/515/03(H3N2))) does the source give for KSFFSRLNW here?
The Kd was 139 nM.

For KSHTLWSNG, which Kd [4, 32] is on record?
Its Kd is 425 nM.

For KVKKRYPEF, which Kd [4, 22] is on record?
The Kd was 103 nM.

For KVVRVQRPA, which Kd ([4]; source organism: Dengue virus 1 Brazil/97-11/1997) is on record?
Its Kd is 61.4 nM.

For KYQLAVTIM, which Kd [14, 32] is on record?
The Kd was 29.2 nM.

How did the Kd [4, 32] turn out when LAAVSVSPLL was run?
Its Kd is 6020 nM.

Which Kd [4, 32] does the source give for LALLAAFKVR here?
The Kd was 74.8 nM.

How did the Kd [18] turn out when LEDSHNGKL was run?
The Kd was 73 nM.

LHQVFGAIY was tested. Which Kd [7, 32] did it give?
The Kd was 42.7 nM.

How did the Kd [5, 22] turn out when LLPDSDVFV was run?
Its Kd is 1.1 nM.

With LNIMNKLNI as the sequence, how does the Kd [5, 31] read?
Its Kd is 406 nM.

For LRFLTIPPTA, which Kd [4, 32] is on record?
Its Kd is 951 nM.

How did the Kd [4, 22] turn out when MGRFGYVPY was run?
Its Kd is 14.8 nM.

For MLLTFLTSLL, which Kd [19, 34] is on record?
Its Kd is 0.734 nM.

And the Kd [20, 34]?
Its Kd is 24.6 nM.

What about the Kd [21, 34] of the same sequence?
The Kd was 7.34 nM.

For MLNRVQILM, which Kd [19, 22] is on record?
The Kd was 4.75 nM.

What about the Kd [20, 22] of the same sequence?
Its Kd is 2560 nM.

And the Kd [21, 22]?
The Kd was 26.9 nM.

Which Kd ([5]; source organism: Variola virus) does the source give for MMPIKSIVTL here?
The Kd was 5.1 nM.

For MRRERAAYV, which Kd [4, 22] is on record?
Its Kd is 21.8 nM.

With MTFGDIPLV as the sequence, how does the Kd [4, 22] read?
The Kd was 235 nM.

Which IC50 [6, 24] does the source give for NAAGIAWIP here?
The IC50 was 64500 nM.

For NAHEGQLVI, which Kd [3, 35] is on record?
Its Kd is at least 25300 nM.

What about the Kd [2, 35] of the same sequence?
The Kd was 3400 nM.

Which Kd [19, 22] does the source give for NIDSIMSMM here?
Its Kd is 25 nM.

What about the Kd [20, 22] of the same sequence?
The Kd was 4720 nM.

And the Kd [21, 22]?
The Kd was 874 nM.
